In the RNAGym collection of RNA variant scans (doi:10.7554/elife.80360):

B1: Twister Ribozyme (parent)
chain: AACACUGCCAAUGCCGGUCCCAAGCCCGGAUAAAAGUGGAGGGGGCGG

Variants of: B1
Test: self-cleavage, relative activity (ratio to wild type); higher = more cleavage; co-transcriptional

Variant | self-cleavage
G13A G47C | 0.272
G13A G47A | 0.457
G13A G45U | 0.539
G13A G45A | 0.724
G13A C19U | 0.284
G13A C19A | 0.113
G13U | 0.801
G13A | 1.05
G13C | 0.584
G13C A23U | 0.0457
U12G G16C | 0.753
G13C U37G | 0.125
G13C U37C | 0.116
G13A G39C | 0.168
U12G G28C | 0.344
G13C G28U | 0.255
G13C G28C | 0.31
G13C G28A | 0.307
G13A C14A | 0.685
U12G C19U | 0.998
G13A A40G | 0.185
G13C G43A | 0.0854
G13C G43C | 0.105
U12G G39U | 0.247

Variant | self-cleavage
U12G G39C | 0.137
U12G G39A | 0.477
G13A A30G | 0.742
G13C C26G | 0.101
G13C A33G | 0.676
G13C A33U | 0.335
U12G G41A | 0.658
U12G G41U | 0.783
U12G G41C | 0.315
G13A G36A | 0.162
G13A G36U | 0.139
G13C C21G | 0.0833
G13C C21A | 0.0599
G13C C21U | 0.0571
U12G G45C | 0.288
U12G G45U | 0.419
G13C C19G | 0.125
G13C C19U | 0.0706
G13A G48C | 0.91
G13A G48U | 0.705
U12G U31C | 0.907
U12G U31G | 0.834
U12G U31A | 0.746
G13A A23C | 0.093

Variant | self-cleavage
G13A G17A | 0.121
U12G A34G | 0.608
U12G A34U | 0.701
G13A G42C | 0.34
G13A G42U | 0.191
G13A C15G | 0.118
G13A C15U | 0.579
G13C A34C | 0.0766
G13C A34U | 0.137
G13C A34G | 0.253
G13C A22C | 0.71
U12G A40C | 0.261
U12G A40U | 0.279
U12G G43U | 0.454
U12G G43C | 0.274
U12G A35U | 0.848
U12G A35C | 0.89
U12G G29U | 0.823
G13C G38C | 0.32
U12G U18A | 0.46
U12G U18C | 0.437
G13C G36C | 0.122
G13C G36A | 0.126
U12G C26U | 0.407

Variant | self-cleavage
U12G C26G | 0.451
G13A G43A | 0.14
U12G C15U | 0.649
U12G U37C | 0.593
U12G U37G | 0.653
U12G G13C | 1.05
U12G G13U | 0.836
U12G G13A | 1.14
G13A G16U | 0.168
G13C G47C | 0.179
G13C G47U | 0.145
G13C G47A | 0.154
G13A A34U | 0.64
G13C G39C | 0.117
G13C G39U | 0.108
U12G G24U | 0.167
G13C G41C | 0.104
G13C G41A | 0.0914
G13C G41U | 0.0855
G13A G44U | 0.845
G13A G44A | 1.04
G13A G44C | 0.746
G13A C26G | 0.0899
G13A C26A | 0.095

Variant | self-cleavage
G13A A22U | 0.424
G13A A22C | 1.05
G13C G17A | 0.0829
U12G A22U | 0.706
U12G A22C | 1.13
G13C G29C | 0.477
G13C G29U | 0.46
G13C G29A | 0.411
U12G C25U | 0.675
U12G C25A | 0.256
G13A A33C | 0.825
G13A A33G | 0.943
U12G C46U | 0.866
U12G C46A | 0.706
G13C A30G | 0.502
G13C A32U | 0.108
G13C U18G | 0.0609
G13C U18A | 0.067
U12G A23U | 0.566
U12G A23C | 0.401
G13C C27G | 0.104
G13C C25G | 0.101
G13C C25U | 0.163
U12G G48U | 0.789

Variant | self-cleavage
U12G A33C | 0.685
G13A U31C | 0.962
G13A U31G | 1.01
U12G G47C | 0.528
U12G G42U | 0.531
U12G G42A | 0.494
G13A C46U | 0.931
G13C C15G | 0.0922
G13C C15A | 0.0696
G13A C21G | 0.105
G13A C21U | 0.0803
G13A G38C | 0.78
G13A G38A | 0.581
G13C G44C | 0.185
G13C G44U | 0.254
U12G G17C | 0.0934
U12G G17A | 0.577
G13C C14A | 0.593
G13A A35U | 0.978
G13A A35G | 0.203
G13A A35C | 1.02
G13C G24U | 0.0687
G13C U31G | 0.585
G13C U31A | 0.767

Variant | self-cleavage
U12G A30C | 0.969
G13C G42U | 0.112
G13C G42C | 0.166
G13A G29U | 0.598
G13A G29C | 0.692
G13A G29A | 0.653
U12G G38A | 0.771
G13A U18A | 0.0831
G13C G45A | 0.209
G13C G45C | 0.138
G13A G24U | 0.13
G13A G24C | 0.129
G13A G24A | 0.0967
U12G A32C | 0.9
U12G A32U | 0.958
U12G A32G | 0.914
G13A C27A | 0.0875
G13A C27U | 0.482
U12G C20U | 0.725
U12G C20G | 0.249
G13A A32C | 0.689
G13C A40G | 0.0963
G13C A40U | 0.109
